According to patent US20220315633A1 (Janssen / Centocor, published 2022):

Target: T1, human GDF15 receptor (GFRAL) stably over-expressed on SK-N-AS cells (human, UniProt Q6UXV0 19-394)
T1 sequence (looked up): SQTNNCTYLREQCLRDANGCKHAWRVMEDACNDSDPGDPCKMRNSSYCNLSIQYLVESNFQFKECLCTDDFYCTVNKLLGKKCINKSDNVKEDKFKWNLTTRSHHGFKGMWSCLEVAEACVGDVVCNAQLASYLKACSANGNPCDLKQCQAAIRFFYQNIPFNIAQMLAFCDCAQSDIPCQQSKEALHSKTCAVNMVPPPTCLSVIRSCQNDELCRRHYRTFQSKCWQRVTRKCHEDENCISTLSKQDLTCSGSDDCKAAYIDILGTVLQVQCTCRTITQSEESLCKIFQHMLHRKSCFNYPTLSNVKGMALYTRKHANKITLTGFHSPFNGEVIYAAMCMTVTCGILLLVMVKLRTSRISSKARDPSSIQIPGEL
Experiment: cell-based or functional assay

B1: Native GDF15 (ligand, UniProt Q99988 197-308, looked up)
chain: ARNGDHCPLGPGRCCRLHTVRASLEDLGWADWVLSPREVQVTMCIGACPSQFRAANMHAQIKTSLHRLKPDTVPAPCCVPASYNPMVLIQKTDTGVSLQTYDDLLAKDCHCI
EC50, cell-based pAKT (phospho-AKT Ser473) assay: 0.153 nM
